B1: 16-B-03: humanized antibody binding human iRhom2; HCVD SEQ ID NO 1, LCVD SEQ ID NO 5 (antibody, V domains shown)
VH: QVTLRESGPALVKPTQTLTLTCTFSGFSLSTFALGVGWIRQPPGKALEWLAHIWWDDDKYYNPALKSRLTISKDTSKNQVVLTITNMDPVDTATYYCARITTYYYGMDYWGQGTLVTVSS
VL: EIVMTQSPDFQSVTPKEKVTITCRASQSIGNHLHWYQQKPDASPKLLIKYASQSISGVPSRFSGSGSGTDFTLTINSLEAEDAATYFCQQSYQWPLTFGQGTKLEIK
modifications: antibody sequences
B2: 16-B-05: humanized antibody binding human iRhom2; HCVD SEQ ID NO 9, LCVD SEQ ID NO 13 (antibody, V domains shown)
VH: QVTLRESGPALVKPTQTLTLTCTFSGFSLSTFALGVGWIRQPPGKALEWLAHIWWDEDKYYNPALKSRLTISKDTSKNQVVLTITNMDPVDTATYYCARITTYYYGMDYWGQGTLVTVSS
VL: EIVMTQSPDFQSVTPKEKVTITCRASQSIGNHLHWYQQKPDASPKLLIKYASQSISGVPSRFSGSGSGTDFTLTINSLEAEDAATYFCQQSYNWPLTFGQGTKLEIK
modifications: antibody sequences
B3: 16-B-07: humanized antibody binding human iRhom2; HCVD SEQ ID NO 17, LCVD SEQ ID NO 21 (antibody, V domains shown)
VH: QVTLRESGPALVKPTQTLTLTCTFSGFSLSTFALGVGWIRQPPGKALEWLAHIWWDEDKYYNPALKSRLTISKDTSKNQVVLTITNMDPVDTATYYCARITTYYYGMDYWGQGTLVTVSS
VL: EIVMTQSPDFQSVTPKEKVTITCRASQSIGNHLHWYQQKPDASPKLLIKYASQSISGVPSRFSGSGSGTDFTLTINSLEAEDAATYFCQQSYQWPLTFGQGTKLEIK
modifications: antibody sequences
B4: 23-B-04: humanized antibody binding human iRhom2; HCVD SEQ ID NO 25, LCVD SEQ ID NO 29 (antibody, V domains shown)
VH: QVTLRESGPALVKPTQTLTLTCTFSGFSLSTFGMGVGWIRQPPGKALEWLAHIWWDDEKYYNSALKSRLTISKDTSKNQVVLTITNMDPVDTATYYCARISNYGSNYWYFNVWGQGTLVTVSS
VL: AIQLTQSPSSLSASVGDRVTITCRASSSVSYMYWYQQKPGKAPKVLIYDTSNLASGVPSRFSGSGSGTDYTLTISSLQPEDFATYYCQQWNAYPLTFGQGTKLEIK
modifications: antibody sequences
B5: 42-B-04: humanized antibody binding human iRhom2; HCVD SEQ ID NO 41, LCVD SEQ ID NO 45 (antibody, V domains shown)
VH: QVTLRESGPALVKPTQTLTLTCTFSGFSLSTFGRGVGWIRQPPGKALEWLAHIWWDDEKYYNSALKSRLTISKDTSKNQVVLTITNMDPVDTATYYCARIQNYGSNYWYFDVWGQGTLVTVSS
VL: AIQLTQSPSSLSASVGDRVTITCRASSRISYMFWYQQKPGKAPKVLIYDTSNLASGVPSRFSGSGSGTDYTLTISSLQPEDFATYYCQQWNAYPLTFGQGTKLEIK
modifications: antibody sequences
B6: 42-B-02: humanized antibody binding human iRhom2; HCVD SEQ ID NO 33, LCVD SEQ ID NO 37 (antibody, V domains shown)
VH: QVTLRESGPALVKPTQTLTLTCTFSGFSLSTFGRGVGWIRQPPGKALEWLAHIWWDDEKYYNSALKSRLTISKDTSKNQVVLTITNMDPVDTATYYCARIQNYGSNYWYFDVWGQGTLVTVSS
VL: AIQLTQSPSSLSASVGDRVTITCRASSRISYMFWYQQKPGKAPKVLIYDTSNLASGVPSRFSGSGSGTDYTLTISSLQPEDFATYYCQQWNSYPLTFGQGTKLEIK
modifications: antibody sequences

Molecular target: T1, mouse iRhom2 (Mus musculus, UniProt Q80WQ6)
T1 construct: MEF-DKO-miR2-FL-WT-T7 cells stably expressing mouse iRhom2 full length wild type; expressed in transfected cells; host or cells: immortalized iRhom1/2-/- DKO mouse embryonic fibroblasts, pMSCV retroviral infection
T1 sequence (Q80WQ6 1-827): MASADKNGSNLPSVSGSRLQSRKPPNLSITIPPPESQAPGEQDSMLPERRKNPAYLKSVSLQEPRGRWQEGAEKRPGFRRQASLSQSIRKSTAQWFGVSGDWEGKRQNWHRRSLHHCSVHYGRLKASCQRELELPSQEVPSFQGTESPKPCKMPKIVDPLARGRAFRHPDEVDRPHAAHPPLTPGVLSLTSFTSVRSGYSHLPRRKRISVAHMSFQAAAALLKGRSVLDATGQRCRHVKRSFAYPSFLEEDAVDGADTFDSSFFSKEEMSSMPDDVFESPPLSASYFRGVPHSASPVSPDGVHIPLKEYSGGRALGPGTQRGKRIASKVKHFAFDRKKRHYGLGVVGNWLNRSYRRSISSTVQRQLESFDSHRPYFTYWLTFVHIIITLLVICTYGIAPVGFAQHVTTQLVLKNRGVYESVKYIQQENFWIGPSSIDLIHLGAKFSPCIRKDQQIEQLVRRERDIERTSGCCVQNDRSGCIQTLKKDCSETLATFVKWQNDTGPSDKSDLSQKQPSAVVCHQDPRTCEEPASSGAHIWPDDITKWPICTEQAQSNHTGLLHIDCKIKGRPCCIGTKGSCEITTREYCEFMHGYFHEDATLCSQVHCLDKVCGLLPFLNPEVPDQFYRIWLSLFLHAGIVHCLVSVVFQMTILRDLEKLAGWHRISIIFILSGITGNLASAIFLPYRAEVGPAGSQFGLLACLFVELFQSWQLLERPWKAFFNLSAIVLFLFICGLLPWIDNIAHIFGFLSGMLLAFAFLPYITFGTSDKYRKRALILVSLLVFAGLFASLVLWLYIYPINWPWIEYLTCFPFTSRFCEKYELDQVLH
Assay: FACS mouse cross-reactivity on MEF-DKO-miR2-FL-WT-T7 cells
Assay type: binding
Conditions: antibody at 3 μg/ml
Text: Next, immortalized iRhom1/2−/− DKO MEFs were reconstituted with a tagged form of human iRhom2 to test target recognition of humanized antibodies of the invention. Additionally, iRhom1/2−/− DKO MEFs stably expressing a tagged form of mouse iRhom2 were generated in order to determine cross-reactivity of the humanized antibodies 16-B-03, 16-B-05, 16-B-07, 23-B-04, 42-B-02 and 42-B-04 of the invention with the mouse orthologue of iRhom2.
In brief, on day 1, Phoenix-ECO cells (American Type Culture Collection, USA) were seeded on 6-well tissue culture plates (Greiner, Germany) in standard growth medium at 8×10^5 cells per well and kept overnight at 37° C., 5% CO2. On day 2, the medium was replaced by fresh medium supplemented with chloroquine (Sigma-Aldrich, USA) at a final concentration of 25 μM. Applying the calcium phosphate method, cells were transfected with 2 μg/ml of pMSCV (Clontech, USA) empty vector, pMSCV-hiR2-FL-WT-T7 encoding human iRhom2 full length wild type C-terminally tagged with 3 consecutive copies of the T7 epitope (MASMTGGQQMG) or pMSCV-miR2-FL-WT-T7 encoding mouse iRhom2 full length wild type C-terminally tagged with 3 consecutive copies of the T7 epitope, and were kept at 37° C., 5% CO2. After 7 hours, the transfections were stopped by replacing cell supernatants with standard growth medium lacking chloroquine, and cells were incubated at 37° C., 5% CO2 to allow virus production overnight. In parallel, immortalized iRhom1/2−/− DKO MEFs as target cells for retroviral infection were seeded on 6-well tissue culture plates (Greiner, Germany) in standard growth medium at 1×10^5 cells per well and were also kept overnight at 37° C., 5% CO2. On day 3, the supernatants of Phoenix-ECO cells releasing pMSCV, pMSCV-hiR2-FL-WT-T7 or pMSCV-miR2-FL-WT-T7 ecotrophic virus were collected, filtered with 0.45 μm CA filters, and supplemented with 4 μg/ml of polybrene (Sigma-Aldrich, USA). Upon removal of medium from the immortalized iRhom1/2−/− DKO MEFs, the virus containing supernatants were added to the target cells for 4 hours at 37° C., 5% CO2 for first infection. Simultaneously, Phoenix-ECO cells were re-incubated with fresh medium, which, after another 4 hours, was filtered and used for the second infection of the respective target cell populations, again in the presence of 4 μg/ml of polybrene. Likewise, a third, but overnight infection cycle was performed. On day 4, virus containing cell supernatants were replaced by fresh standard growth medium. From day 5 onwards, cells were grown in the presence of 2 mg/ml of geneticin (G418, Thermo Fisher Scientific, USA) for the selection of immortalized MEF-DKO-EV control cells stably infected with pMSCV empty vector, MEF-DKO-hiR2-FL-WT-T7 cells stably expressing human iRhom2 full length wild type C-terminally tagged with 3 consecutive copies of the T7 epitope, and MEF-DKO-miR2-FL-WT-T7 cells stably expressing mouse iRhom2 full length wild type C-terminally tagged with 3 consecutive copies of the T7 epitope. Upon propagation, cells were stocked for future usage.
In brief, immortalized MEF-DKO-EV control cells, MEF-DKO-hiR2-FL-WT-T7 cells and MEF-DKO-miR2-FL-WT-T7 cells were harvested with 10 mM EDTA in PBS, washed and resuspended in FACS buffer (PBS, 3% FBS, 0.05% sodium azide), and seeded in Nunc U-bottom 96-well plates (Thermo Fisher Scientific, USA) at approximately 3×10^5 cells per well. To pellet cells and remove supernatants, the plates were centrifuged at 1,500 rpm and 4° C. for 3 minutes. For primary staining, cells were resuspended in 100 μl per well of either FACS buffer alone (controls), mouse monoclonal anti-T7 IgG (Merck Millipore, USA) at 3 μg/ml FACS buffer or the humanized antibodies 16-B-03, 16-B-05, 16-B-07, 23-B-04, 42-B-02 and 42-B-04 of the invention also at 3 μg/ml FACS buffer and incubated on ice for 1 hour. Afterwards, plates were centrifuged at 1,500 rpm and 4° C. for 3 minutes and washed twice with 200 μl per well of FACS buffer. […]

Molecule	binding to mouse iRhom2 on MEF-DKO-miR2-FL-WT-T7 cells (mouse cross-reactivity)
B1	no significant binding
B2	none of these humanized antibodies of the invention are cross-reactive
B3	none of these humanized antibodies of the invention are cross-reactive
B4	none of these humanized antibodies of the invention are cross-reactive
B5	none of these humanized antibodies of the invention are cross-reactive
B6	none of these humanized antibodies of the invention are cross-reactive
